Consider 84 variants from the RNAGym collection of RNA variant scans (doi:10.1073/pnas.2313332121).

Sequences and labels used below:
B1: TPR t1 (parent)
chain: GACCAAUCUGCCCUCAGAGCUCGAGAACAUCUUCGGAUGCAGAGGAGGCAGGCUUCGGUGGCGCGAUAGCGCCAACGUCCUCAACCUCCAAUGCAUCCCACCACAUGAUGAUGCCUGAAGAGCCUUGGUUUUUUG

Variants of B1 are the subject of this data set. The data set can be described thus: polymerase ribozyme fitness, log enrichment relative to wild type (log ratio); higher = more active; in vitro selection for triplet polymerase activity. In short, it runs like this: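 Frozen incubation at −7 °C formed the core of a single, triplicate in vitro selection round applied to PCR-built, transcribed mutant libraries of each subunit of a heterodimeric triplet polymerase ribozyme. Extended constructs were gel-excised, captured with streptavidin beads and amplified by RT-PCR, and input and output libraries were Illumina-sequenced with a filter of ≥10 input reads and ≥1 read per output. Fitness is the logarithm of genotype enrichment relative to wild-type enrichment, with inverse-variance-weighted replicate averaging, and the logarithm is base 2.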
In the case of C76U G110C, the “polymerase ribozyme fitness (log ratio)” value was -4.7.

Regarding C73U A84U G110U, the “polymerase ribozyme fitness (log ratio)” value was -1.67.

Take A75U C99U: the “polymerase ribozyme fitness (log ratio)” value is -3.69.

Take G77C U125C: the “polymerase ribozyme fitness (log ratio)” value is -3.91.

Turning to C72U A91U A100U A119U, the “polymerase ribozyme fitness (log ratio)” value was -3.58.

Turning to C73U C104U C115A, the “polymerase ribozyme fitness (log ratio)” value came out at 0.332.

As to G77U A119G, the “polymerase ribozyme fitness (log ratio)” value is -0.758.

As to C72U A95C, the “polymerase ribozyme fitness (log ratio)” value is -0.818.

Consider C72G A111C, for which the “polymerase ribozyme fitness (log ratio)” value was -0.642.

As to G77U U131A, the “polymerase ribozyme fitness (log ratio)” value was -0.157.

Regarding G77C C115A, the “polymerase ribozyme fitness (log ratio)” value is 0.325.

In the case of G77U C114G A121C, the “polymerase ribozyme fitness (log ratio)” value is -1.7.

As for G77U C88G U92A G113C G122A C123G, the “polymerase ribozyme fitness (log ratio)” value is -4.68.

C72U C94A: the “polymerase ribozyme fitness (log ratio)” value was -1.26.

Consider C72A U125G U131A, for which the “polymerase ribozyme fitness (log ratio)” value is -0.709.

As for C72G U106A, the “polymerase ribozyme fitness (log ratio)” value is -0.511.

Consider A74C U78G C80U C115A, for which the “polymerase ribozyme fitness (log ratio)” value was -2.23.

For U78A C80A C94G U133A, the “polymerase ribozyme fitness (log ratio)” value was -6.19.

Consider C76A C89A U133C, for which the “polymerase ribozyme fitness (log ratio)” value is -2.43.

For the variant U78A C104U C115U, the “polymerase ribozyme fitness (log ratio)” value is -1.54.

With C73U U132C, the “polymerase ribozyme fitness (log ratio)” value was -0.238.

Regarding C72U C82A C115A, the “polymerase ribozyme fitness (log ratio)” value is -1.79.

C73A G113C: the “polymerase ribozyme fitness (log ratio)” value is -2.27.

Turning to A75G G113C, the “polymerase ribozyme fitness (log ratio)” value is -2.4.

Turning to C72G C80A, the “polymerase ribozyme fitness (log ratio)” value was -5.5.

On to C73G U109G, for which the “polymerase ribozyme fitness (log ratio)” value was -6.77.

On to C73G U109A, for which the “polymerase ribozyme fitness (log ratio)” value was -5.36.

For the variant G77U A100C A118U U129C, the “polymerase ribozyme fitness (log ratio)” value was -1.45.

Turning to C72G U112A U129A, the “polymerase ribozyme fitness (log ratio)” value was 0.0162.

Take C72U C86A A103C: the “polymerase ribozyme fitness (log ratio)” value was -5.58.

With A74G C102G U132C, the “polymerase ribozyme fitness (log ratio)” value is -5.92.

In the case of C73A G128C, the “polymerase ribozyme fitness (log ratio)” value is -2.05.

Consider A74U C88G U112G U132G G135A, for which the “polymerase ribozyme fitness (log ratio)” value is -0.922.

For C73A C114A, the “polymerase ribozyme fitness (log ratio)” value was -1.84.

For A74C C101G, the “polymerase ribozyme fitness (log ratio)” value was -2.14.

In the case of A75U C97A, the “polymerase ribozyme fitness (log ratio)” value was -5.53.

Turning to C72G U87A, the “polymerase ribozyme fitness (log ratio)” value was -2.08.

On to A74C U106A C123U, for which the “polymerase ribozyme fitness (log ratio)” value was 1.18.

As to C73U U78A C88G G120U, the “polymerase ribozyme fitness (log ratio)” value was -1.15.

For C73U C82A, the “polymerase ribozyme fitness (log ratio)” value came to 0.468.

As for C73G C85U G93U A95G C123A, the “polymerase ribozyme fitness (log ratio)” value was -3.28.

As for C73G C101U, the “polymerase ribozyme fitness (log ratio)” value was -0.446.

Consider G77A A83U U87C C104U A105C, for which the “polymerase ribozyme fitness (log ratio)” value is -5.02.

Take C72U U96A: the “polymerase ribozyme fitness (log ratio)” value is -1.65.

For the variant U78A U92G U125G, the “polymerase ribozyme fitness (log ratio)” value was -4.08.

As to A74U U125A U131G, the “polymerase ribozyme fitness (log ratio)” value is -0.852.

G77U U81G: the “polymerase ribozyme fitness (log ratio)” value is -3.24.

As for U78A C115G, the “polymerase ribozyme fitness (log ratio)” value is -2.13.

In the case of A74U G93A, the “polymerase ribozyme fitness (log ratio)” value was -0.498.

On to C72U U78C C86G C115U, for which the “polymerase ribozyme fitness (log ratio)” value was -1.64.

In the case of G77A U109A, the “polymerase ribozyme fitness (log ratio)” value was -5.95.

In the case of G77A U116A, the “polymerase ribozyme fitness (log ratio)” value is -4.07.

As to C73A A91U, the “polymerase ribozyme fitness (log ratio)” value was -0.926.

For the variant C73A A91G, the “polymerase ribozyme fitness (log ratio)” value is -0.975.

Turning to C72U C86U U126G, the “polymerase ribozyme fitness (log ratio)” value was -2.65.

Turning to C73A C102U G128C, the “polymerase ribozyme fitness (log ratio)” value was -3.88.

Consider A75G A83C G93C, for which the “polymerase ribozyme fitness (log ratio)” value is -1.73.

For C73U U126A, the “polymerase ribozyme fitness (log ratio)” value is -1.7.

Regarding C72U G128U, the “polymerase ribozyme fitness (log ratio)” value is -1.48.

With C73U C101G G120U, the “polymerase ribozyme fitness (log ratio)” value was -0.999.

On to C72G C82U C102A G120A, for which the “polymerase ribozyme fitness (log ratio)” value was -1.89.

As to C72U C86U G107U G113U, the “polymerase ribozyme fitness (log ratio)” value is -6.11.

Take A74C G77C: the “polymerase ribozyme fitness (log ratio)” value was -0.117.

For A74U C101U G113A C123G, the “polymerase ribozyme fitness (log ratio)” value was -1.64.

For the variant G77C G117C, the “polymerase ribozyme fitness (log ratio)” value was -4.29.

Regarding A75U C99U U109G C115U U116A, the “polymerase ribozyme fitness (log ratio)” value was -7.29.

Turning to C76A G117A C124A, the “polymerase ribozyme fitness (log ratio)” value was -0.549.

On to C72G C89U, for which the “polymerase ribozyme fitness (log ratio)” value is -0.34.

G77U C94U: the “polymerase ribozyme fitness (log ratio)” value worked out at 0.0625.

Take C76U C94A U106C U112C: the “polymerase ribozyme fitness (log ratio)” value amounted to 0.627.

Take C76A A121U U125G: the “polymerase ribozyme fitness (log ratio)” value worked out at 0.374.

For the variant C73A G117U, the “polymerase ribozyme fitness (log ratio)” value was -2.74.

Take C73U U81A: the “polymerase ribozyme fitness (log ratio)” value was -3.27.

In the case of C72G G117A, the “polymerase ribozyme fitness (log ratio)” value is -1.8.

With C72G G117U, the “polymerase ribozyme fitness (log ratio)” value is -2.41.

For G77U A91U U132A, the “polymerase ribozyme fitness (log ratio)” value was -2.14.

For the variant A74U A111C, the “polymerase ribozyme fitness (log ratio)” value was -1.62.

C72G U125G: the “polymerase ribozyme fitness (log ratio)” value was -1.12.

In the case of C72U C82U C98U A119G, the “polymerase ribozyme fitness (log ratio)” value was -0.0419.

For the variant C72G G117U A121U G127A, the “polymerase ribozyme fitness (log ratio)” value was -3.25.

As for C72G G93A, the “polymerase ribozyme fitness (log ratio)” value is -0.585.

With C72U G120C U131G, the “polymerase ribozyme fitness (log ratio)” value worked out at 0.516.

Turning to A74U G93U G117C, the “polymerase ribozyme fitness (log ratio)” value was -5.37.

As for C72U A75U C114A G122C, the “polymerase ribozyme fitness (log ratio)” value was -2.52.
